# Tested on: MS2 coat protein
# Test: apparent KD of MS2 coat protein; designed switch direction (-1 OFF switch, 1 ON switch): 1; higher = weaker reporter binding
# Summary of the method: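 Stalled E. coli RNA polymerase transcribed designed RNA switches on Illumina chips, which were then titrated with SNAP-549-labelled MS2 coat protein, doubling from 0.7 or 1.5 nM to 3 µM. Steps lasted from 0.8–1.5 h at the lowest concentration to 10–20 min at the highest. The apparent KD is each design's median over clusters of curve-fitted normalised fluorescence.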
# [1] = input ligand: microRNA oligo, concentration not stated
Sequence,apparent KD of MS2 coat protein (input ligand: FMN 200 uM),apparent KD of MS2 coat protein [1],apparent KD of MS2 coat protein (input ligand: none),"apparent KD of MS2 coat protein (Eterna round: R95, input ligand: FMN 200 uM)","apparent KD of MS2 coat protein (Eterna round: R95, input ligand: microRNA oligo, concentration not stated)","apparent KD of MS2 coat protein (Eterna round: R95, input ligand: none)"
"GCGGAGAGGUAAGGAUAUCCAUGGCAUAGACAUGAGGAUCACCCAUGUAGGAGACGAAUUAGGAGGGAGAAGGUACCGGGACGC [AK SSNG2-V2-19.1] (Eterna round: R96, puzzle: Same State NG 2)",120 nM,81.2 nM,179 nM,,,
"GCGUGAGAGAUAGGAUAUCGUGUACCUACAUGUGACAUGAGGAUCACCCAUGUGGUAAGUAUGAGCGAGAAGGAUCCGAUAUGU [salish99_SSNG2_r04_1003] (Eterna round: R96, puzzle: Same State NG 2)",28.2 nM,54.7 nM,63.5 nM,,,
"GCUACCAAAGAAGCCAACAUGAGGAUCACCCAUGUAUGUUGGCAGGAUAUCGAUUGCAAAGCGAUCGAGAAGGGCUAAGGUAGC [Mat - Same State NG 3 - JL Mod - D88] (Eterna round: R96, puzzle: Same State NG 3)",147 nM,214 nM,204 nM,,,
"GCUACCAAAUAAGCCAACAUGAGGAUCACCCAUGUAUGUUGGUAGGAUAUCGUAUGCAAAGCAUACGAGAAGGGCUAAGGUAGC [Mat - Same State NG 3 - JL Mod - D80] (Eterna round: R96, puzzle: Same State NG 3)",57.1 nM,40.4 nM,52.5 nM,,,
"GCUACCAAUAAAGCCAACAUGAGGAUCACCCAUGUAUGUUGGUAGGAUAUCGUUUGCAAAGCAAACGAGAAGGGCUAAGGUAGC [Mat - Same State NG 3 - JL Mod - D76] (Eterna round: R96, puzzle: Same State NG 3)",39.1 nM,28.2 nM,43.9 nM,,,
"GCUACCAUUGAAGCCAACAUGAGGAUCACCCAUGUAUGUUGGUAGGAUAUCGUUUGCUUUGCAAACGAGAAGGGCUAAGGUAGC [JL SSNG3 1.27] (Eterna round: R96, puzzle: Same State NG 3)",72.2 nM,57.4 nM,77.1 nM,,,
"GCUAGGAAAGAAGCCAACAUGAGGAUCACCCAUGUAUGUUGGUAGGAUAUCGUUUGCAAAGCAAACGAGAAGGGCUAACCUAGC [Mat - Same State NG 3 - JL Mod - D73] (Eterna round: R96, puzzle: Same State NG 3)",202 nM,203 nM,184 nM,,,
"GCUAGGAAUAAAGCCAACAUGAGGAUCACCCAUGUAUGUUGGUAGGAUAUCGUUUGCAAAGCAAACGAGAAGGGCUAACCUAGC [Mat - Same State NG 3 - JL Mod - D68] (Eterna round: R96, puzzle: Same State NG 3)",85.8 nM,62.7 nM,71.1 nM,,,
"GCUAGGAUAUGACGAGGAUCACCCGUUAGAAGGAGCGAAGGCUAGGAUAUGACGAGGAUCACCCGUUAGAAGGAGCUGUACUCU [pwkr ssNG3 DX 2xF5 +2xFMN.10] (Eterna round: R96, puzzle: Same State NG 3)",188 nM,64.9 nM,80.3 nM,,,
"GCUCGAUGAGCGUUUUACAUGAGGAUCACCCAUGUUCGUGGGCAGGAUAUUUACGUGCGGUGUGUAGAGAAGGGCCCAUCGAGC [SameState NG3 #69] (Eterna round: R96, puzzle: Same State NG 3)",87.1 nM,247 nM,529 nM,,,
"GCUCGAUGAGCUGUUUACAUGAGGAUCACCCAUGUAAAUGGGCAGGAUAUUUACGUGCUUUGUGUAGAGAAGGGCCCAUCGAGC [SameState NG3 #76] (Eterna round: R96, puzzle: Same State NG 3)",32.4 nM,103 nM,235 nM,,,
"GCUCGCACGAUGACCGACAUGAGGAUCACCCAUGUGUGUCGGUAGGAUAUCUAUAUUAAGGAUUUAGAGAAGGGCCCAGCGAGC [SameState NG3 #20] (Eterna round: R96, puzzle: Same State NG 3)",68.3 nM,68.5 nM,69.3 nM,,,
"GCUCGUGGUAUUGUCUACAUGAGGAUCACCCAUGUGGGUGCGGAGGAUAUCUACGUGUCUCAUGUAGAGAAGGUCGUCACGAGC [SameState NG3 #100] (Eterna round: R96, puzzle: Same State NG 3)",119 nM,119 nM,102 nM,,,
"GCUCUGGCGGUAGGAUAUCUAGGAUAUGGGAAAGACUAAGUCUGUAGGUCACCUAACCCAGAAGGAGAGAAGGACCCUGUAAGG [pwkr ssNG2 2FMN + F9.23] (Eterna round: R96, puzzle: Same State NG 2)",21 nM,17.2 nM,18.6 nM,,,
"GCUGCAAUAAACGCCUACAUGAGGAUCACCCAUGUAUGUAGGCAGGAUAUCGUAUGCAAAGCAUACGAGAAGGGCCGUAGUAGC [Mat - Same State NG 3 - JL Mod - D36] (Eterna round: R96, puzzle: Same State NG 3)",26.4 nM,44.4 nM,56.6 nM,,,
"GCUGGAAACCACAUGAGGAUCACCCAUGUUCCGGAAACGGCACAGGAUAUCUGUCCGAAAAGGUCAGAGAAGGGUGAAACCAGC [Fiskers NG3ss - 83] (Eterna round: R96, puzzle: Same State NG 3)",263 nM,114 nM,188 nM,,,
"GCUGGAAACCACAUGAGGAUCACCCAUGUUCCGGAAACGGCGCAGGAUAUCUGUCCGAAAAGGUCAGAGAAGGGUGAAACCAGC [Fiskers NG3ss - 80] (Eterna round: R96, puzzle: Same State NG 3)",600 nM,387 nM,346 nM,,,
GCUUCACAUGAGGAUCACCCAUGUCGUCGGAGUCGAGGAUAUGGUAACUGUAAACAGUUGCCAGAAGGCGAGGAGC [SS1 - Son of Teenbexe v10] (puzzle: Same State 1),,,,23.2 nM,24.4 nM,26 nM
"GCUUCGGCGGUAGGAUAUCUAGGAUAUGGGAAAGACUAAGUCUGUAGGUCACCUAACCCAGAAGGAGAGAAGGACAGGUUCGCC [pwkr ssNG2 2FMN + F9.35] (Eterna round: R96, puzzle: Same State NG 2)",415 nM,1.71 nM,1.98 nM,,,
"GGAAGGAGGUCAGGAUAUGAAUGGAUGGGACAUGAGGAUCACCCAUGUAAUAGAAGAAAUCUACAUUAGAAGGGACAAGGAAGG [AK SSNG2-V2-5] (Eterna round: R96, puzzle: Same State NG 2)",105 nM,83.2 nM,130 nM,,,
"GGAAUAUGAUGUUACAUGAGGAUCACCCAUGUAGUAAUAACUAAGGAUAUCUGAAAGGGAGGAGAAGAGAAGGUAGGAUCAUAA [AK SSNG3-V2-10.2] (Eterna round: R96, puzzle: Same State NG 3)",60 nM,35.4 nM,56.4 nM,,,
"GGAAUAUGAUGUUACAUGAGGAUCACCCAUGUAGUGAUAACUAAGGAUAUCUGUUAAGAUAACUAAGAGAAGGUAGGAUCAUAA [AK SSNG3-V2-8.3] (Eterna round: R96, puzzle: Same State NG 3)",49.7 nM,44.9 nM,55.9 nM,,,
"GGAAUAUUUACAGGAUAUGAUUUGUAAAGUCGAUCAGAAGGGUGGAUGUCUUACACGGUUUGUUACAUGAGGAUCACCCAUGUC [SameState NG1 #13] (Eterna round: R96, puzzle: Same State NG 1)",232 nM,233 nM,378 nM,,,
"GGAAUAUUUACAGGAUAUGUUUUGUUAAGUCGAGCAGAAGGGUAGAUGUCUUACACGGUUUGUUACAUGAGGAUCACCCAUGUC [SameState NG1 #16] (Eterna round: R96, puzzle: Same State NG 1)",26.4 nM,80.3 nM,126 nM,,,
"GGAAUAUUUACAGGAUAUGUUUUGUUAAGUCGAGCAGAAGGGUGGAUGUCUUACACGGUUUGUUACAUGAGGAUCACCCAUGUC [SameState NG1 #15] (Eterna round: R96, puzzle: Same State NG 1)",,188 nM,,,,
"GGAAUGUGAUGUUACAUGAGGAUCACCCAUGUAGUGACAACUAAGGAUAUCUGAAAAGAAGGAGAGGAGAAGGUAGGAUCACAA [AK SSNG3-V2-15] (Eterna round: R96, puzzle: Same State NG 3)",30.8 nM,39.2 nM,58.9 nM,,,

# Reference: the supplement of paper PMC9170038
